From the nanobody polyreactivity screen of Harvey et al. (2022)

Assay: yeast display, Sf9 membrane polyspecificity reagent, FACS + sequencing; frameworks hold sequencing errors
Summary of the method: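 Galactose-induced (36–48 hours) yeast carrying a synthetic nanobody display library were exposed to 10% biotinylated, detergent-solubilized Sf9 membrane reagent at 4 °C for 1 hour. FACS followed streptavidin microbead enrichment, using low and high (top ~1%) gates for expression (anti-HA) and reagent binding (streptavidin). Colony PCR, MiSeq 2 × 250 sequencing and CDR-length filtering followed. Labels for polyreactivity reflect the gate of origin.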

Sequence | polyreactivity (PSR sort gate)
QVQLVESGGGLVQAGGSLRLSCAASGRIFIYNAMGWSRQAPGIERELVARIRDRGDSTNYADSVKGRFTISRDNAKNTVYLQMNSLKPEDTAVYYCAAQPWLRYYYWGQGTQVTVSS | low polyreactivity
QVQLVESGGGLVQAGGSLRLSCAASGRIFIYYAMGRYRQAPGKERELVAGIDYSGGSTYYADSVKGRFTISRDNAKNTVYLQMNSLKPEDTAVYFCAAGKYRHYYGRSFYRFDYWGKGTQVTVSS | high polyreactivity
QVQLVESGGGLVQAGGSLRLSCAASGRIFIYYTMGWYRQAPGKERELVAAINSGGSTKYADSVKGRFTISRDNAKNTVYLQMNSLKPEDTAVYYCARRGGFSYYYWGQGTQVTVSS | high polyreactivity
QVQLVESGGGLVQAGGSLRLSCAASGRIFKGYAMGWYRQAPGKERELVAAITWRGGTTYYADSVKGRFTISRDNAKNTVYLQMNSLKPEDTAVYYCATTRYPRSYDYYYWGQGTQVTVSS | high polyreactivity
QVQLVESGGGLVQAGGSLRLSCAASGRIFKLYAMGWYRQAPGKERELVAAISKSGGNTYADSVKGRFTISRDNAKNPVYLQMNSLKPEDTAVYYCAATVQSTSDPFDYLGQGTQVTVSS | low polyreactivity
QVQLVESGGGLVQAGGSLRLSCAASGRIFKLYAMGWYRQAPGKERELVAAISTSAGSTNYADSVKGRFTISRDNSKNTVYLQMNSLKPEDTAVYYCAVAGVSTYYTYYYWGQGTQVTVSS | low polyreactivity
QVQLVESGGGLVQAGGSLRLSCAASGRIFKLYARGWYRQAPGKERELVAAITSGGRTNYADSVKGRFTISRDNAKNTVYLQMNSLKPEDTAVYYCAARYYIVSLGSGYWGQGTQVTVSS | high polyreactivity
QVQLVESGGGLVQAGGSLRLSCAASGRIFKNNAMGWYRQAPGKERELVAAITWRSGRTYYADSVKGRFTISRDNAKNTVYLQMNSLKAEDTAVYYCAKQVFGYGIVNNGDYWGQGTQVTVSS | high polyreactivity
QVQLVESGGGLVQAGGSLRLSCAASGRIFKPYVMGWYRQAPGKERELVASITWNGGRTYYADSVKGRFTISRDNAKNTVYLQMNSLKPEDTAVYYCAADYWTTADPRNIIKYDYWGQGTQVTVSS | high polyreactivity
QVQLVESGGGLVQAGGSLRLSCAASGRIFKRNAMGWYRQAPGNERELVAAINWSGGSTYYADSVKGRFTISRDTAKNTVYLQMNSLKPEDTAVYYCAALRVQGDYDYWGQGTQVTVSS | high polyreactivity
QVQLVESGGGLVQAGGSLRLSCAASGRIFKRNTMGWYRQAPGKERELVAAITRSGGSTHYADSVKGRFTISRDNAKNTVYLQMNSLKPEDTAVYYCAVRAAAIDRLAQFDYWGQGTQVTVSS | low polyreactivity
QVQLVESGGGLVQAGGSLRLSCAASGRIFKRYAKGWYRQAPGKERELVAAISGSGGSTSYADSVKGRFTLSRDNAKNTVYLQMNSLKPEDTAVYYCNTTPRFIRSIGQGNYWVQGTQVTVSS | high polyreactivity
QVQLVESGGGLVQAGGSLRLSCAASGRIFKRYAMGWSRQAPGKDRELVATITTSGDSTYYADSVKGRFTISRDNAKNTVYLQMNSLKPEDTAVYDCAARSYRGRRYDYWGQGTQVTVSS | high polyreactivity
QVQLVESGGGLVQAGGSLRLSCAASGRIFKSNAMGWYRQAPGKEWELVASISRSGSTNYADSVKGRFTISRDNAKNTVYLQMNSLKPEDTAVYYCAKDPDAKGGGYDYWGQGTQVTVSS | low polyreactivity
QVQLVESGGGLVQAGGSLRLSCAASGRIFKSYAMGWYRQAPGKERELVAAIRSGGSTYYADSVKGRFTISRDNAKYTVYLQMNSLKPEDTAVYYCNRVTRTWKVTYHYWGQGTQVTVSS | high polyreactivity
QVQLVESGGGLVQAGGSLRLSCAASGRIFKSYAMGWYRQAPGKERELVAAISRGGRTNYADSVKGRFTISRDNAKNTVYLQMNSLKPEDTAFYYCAARFVVQGHSSPYDYWGQGTQVTVSS | high polyreactivity
QVQLVESGGGLVQAGGSLRLSCAASGRIFKSYAMGWYRQAPGKERELVATISISGGSTYYADSVKGRFTISRDNEKNTVYLQMNSLKPEDNAVYYCNVDFPITEYYYWGNGTQVTVSS | low polyreactivity
QVQLVESGGGLVQAGGSLRLSCAASGRIFKSYAMGWYRQAPGKEWELVAAISRGGRTNYADSVKGRFTISRDNAKNTVYLHMHSLKPEDTAVYYCAAYHRDRNSGFDYWGQGTQGTVSS | high polyreactivity
QVQLVESGGGLVQAGGSLRLSCAASGRIFKTYAMGWYRQAPGKERELVAAITASGGRTYDADSVKGRFTISRDNAKNTVYLQMNSLTPEDTAVYYSAAPLLRDLRSPYSYNYWGQGTQVTVSS | low polyreactivity
QVQLVESGGGLVQAGGSLRLSCAASGRIFKTYAMGWYRQAPGKEREVVAAITAAGGRTYYADSVKGRFTISRDNAKNTVYLQMNSLKPEDTAVYYCAADSGNDYDYWGQGTQVTVSS | low polyreactivity
QVQLVESGGGLVQAGGSLRLSCAASGRIFKVNAMVWYRQPPGKERELVAAIRWSGGSTYYADSVKGRFTISRDNAKNTVYLQMNSLKPEDTAVFYCAATWSRRFDYWGQGSQVTVSS | low polyreactivity
QVQLVESGGGLVQAGGSLRLSCAASGRIFKWYAMGWSRQAPGKEREFVAGISGSAGRTYYADSVKGRFTISRDNAKNTVYLQMNSLKPEDTAVYYCAKDYNRPVEDWAKVNGYDYWGQGTQVTVSS | low polyreactivity

Sequence | polyreactivity (PSR sort gate)
QVQLVESGGGLVQAGGSLRLSCAASGRIFKYNAMGWYRQAPGKERELVAAISGTGGSTYYADSVKGRFTISRDNAKNTVYLQMNSLKPEDTAVYYCAARYYIVSLGSGYWGQGTQVTVSS | high polyreactivity
QVQLVESGGGLVQAGGSLRLSCAASGRIFKYNAMGWYRQAPGKERELVAAISWTGVSTHYADSVKGRFTISRDNAKNTVYLQMNSLKPEDTAVYYCAARVGRGVYYHWRDYWGQGTQVTVSS | low polyreactivity
QVQLVESGGGLVQAGGSLRLSCAASGRIFKYYAKGWYRQAPGKERELVAAITSSGVSTYADSVKGRFTISRDNAKNTVYLQMNSLKPEDTAVYYCAADYVREGLGYDYWGQGTQVTVSS | low polyreactivity
QVQLVESGGGLVQAGGSLRLSCAASGRIFKYYAMGWYRQSPGKERELVAAITSSGGSTYYADSVKGRFTISRDNAKNTVYLQMNRLKPEDTAVYYCAARGPKQLYPGYIYGYWGQGTQVTVSS | low polyreactivity
QVQLVESGGGLVQAGGSLRLSCAASGRIFKYYARGWYRQAPGKERELVAAISGSGGTHYADSVKGRFTISRDNAKNTVYLQMNSLKPEDTAVYYCAVRWRGNGQGGSWGQGTQVTVSS | high polyreactivity
QVQLVESGGGLVQAGGSLRLSCAASGRIFKYYTLGWYRQAPGKERELVAAITSRGGTTYYADSVKGRFTISRDNAKNTVYLQMNSLKPEDTAVYDCAKKRVFRHYYYYATYDYWGQGTQVTVSS | low polyreactivity
QVQLVESGGGLVQAGGSLRLSCAASGRIFKYYVMGWYRQAPGKERELVAAISSGSGSTYYADSVKGRFTISRDNAKNTVYLQMNSLKPEDTAVYYCNALSSWRRTYGSRYDYWGQGTQVTVSS | high polyreactivity
QVQLVESGGGLVQAGGSLRLSCAASGRIFLANAMGWYRQAPGKERELVAAISYSGGSTYYADSVKGRFTISRDNAKNTVYLQMNSLKPEDTAVYYCAADAFTWYTGRAWKYYYWGQGTQVTVSS | low polyreactivity
QVQLVESGGGLVQAGGSLRLSCAASGRIFLDYVMGWYRQAPGKEREVVAAISWSGDRTDYADSVKGRFTISLDNAKNTVYLQMNSLKPEDTAVYYCATTWYFAYSDDYKFDYWGQGTQVTVSS | low polyreactivity
QVQLVESGGGLVQAGGSLRLSCAASGRIFLGYAMGWYRQAPGKERELVAAITFSGGSTYYADSVKGRFTISRDNAKNTVYLQMNSLKPEDTAVYYCAAPRLRRTYPRNRYDYWGQGTQVTVSS | low polyreactivity
QVQLVESGGGLVQAGGSLRLSCAASGRIFLHYAMGWYRQAPGKERELVAAISRSGGSTYYADSVKGRFTISRDNAKNTVYLQMNSLKPEDTAVYYCAAAYPFKTTEGYYYWGQGTQVTVSS | high polyreactivity
QVQLVESGGGLVQAGGSLRLSCAASGRIFLKYAMGWYRQAPGKERELVAAISRRGASTYYADSVKGRFTISRDNSKNTVYLQMNSLKPEDTAVYYCKARTSSGMDYWGQGTQVTVSS | high polyreactivity
QVQLVESGGGLVQAGGSLRLSCAASGRIFLLNAMGWYRQAPGKERELVAAITSGGTTYYADSVKGRFTISRDNAKNTVYLQMNSLKPEDTAVYYCAAEAGYFTYGRRDYWGQGTQVTGSS | low polyreactivity
QVQLVESGGGLVQAGGSLRLSCAASGRIFLLNPMGWNRQATGKERELVARNSSGRTYYADSVKGRFTISRVNAKNTVYLHMKSLKPEDTAVYYCNATVSSSKYRYFYVNPYDYWGQGTQVTVSS | low polyreactivity
QVQLVESGGGLVQAGGSLRLSCAASGRIFLRNAMGWYRPAPGKERELVAGISSIGGITYYADSVKGRFTISRDNAKNTVYLQMNILKPEDTAVYYCAKGLYLHTSGHGPYDYWGQGTQVTVSS | low polyreactivity
QVQLVESGGGLVQAGGSLRLSCAASGRIFLRNVMGWYRQAPGKERELVAAISARGGSTYYADSVKGRFTISRDNGKNSVYLQMNSLKPEDTAVYYCAAGYPVSPSKYYYWGQGTQVTVSS | high polyreactivity
QVQLVESGGGLVQAGGSLRLSCAASGRIFLRYAMGWYRQAPGKEREFVAAISYVGGSTYYADSVKGRFTISRDNAKNTVYLQMNILKPEDTAVYYCNADVPKSLLLYYPWGYGFWGQRTQVTVSS | low polyreactivity
QVQLVESGGGLVQAGGSLRLSCAASGRIFLTNAMGWYRQAPGKERELVAAITSGGSTYYADSVKGRFTISRDNAKNTVYLQMNSLKPEDTAVYYCNADTDRYWPYEYDYWGQGSQVTVSS | low polyreactivity
QVQLVESGGGLVQAGGSLRLSCAASGRIFLVYAMGWYRQAPGKERELVAAIRSGGSTYYADSVKGRFTISRDNAKNTVYLQMNSLKPEVTAVYYCIADSPWYWVRYGVSRRDYWGQGTQVTVSS | low polyreactivity
QVQLVESGGGLVQAGGSLRLSCAASGRIFLWYAMGWYRKAPGKERELVADISSNGGSTRYADSVKGRFAISRDNEKNTVYLQMNILKPEDTAVYYCNADVHWNRYRYGGNGYGYWGQGTQVTVSS | low polyreactivity
QVQLVESGGGLVQAGGSLRLSCAASGRIFLWYAMGWYRQAPGKERELVASITRSGVTTYYADSVKGRFTISRDNAKNTVYLQMKSLKPEDTAVYYCNKDFRGDAIKLDVNYWGQGTQVTVSS | low polyreactivity
